In patent US20150344540A1, “NOVEL GLP-1 RECEPTOR AGONISTS WITH CHOLESTEROL EFFLUX ACTIVITY” (NOVO NORDISK A/S, priority 2012, published 2015):
Where no end group is shown, it is not given here. [ ]: non-standard residue; d: D form. Aib = CC(C)(N)C(=O)O

B1: [Aib2,Glu21,Lys29,Aib30,Leu31,Glu32,Phe33,Leu34,Glu35,Leu36]-Exendin-4-(1-37)-peptide amide (peptide)
peptide: H[Aib]EGTFTSDLSKQMEEEAVREFIEWLKNK[Aib]LEFLELP-NH2
modifications: N-terminus assumed
SMILES: CC[C@H](C)[C@H](NC(=O)[C@H](Cc1ccccc1)NC(=O)[C@H](CCC(=O)O)NC(=O)[C@H](CCCNC(=N)N)NC(=O)[C@@H](NC(=O)[C@H](C)NC(=O)[C@H](CCC(=O)O)NC(=O)[C@H](CCC(=O)O)NC(=O)[C@H](CCC(=O)O)NC(=O)[C@H](CCSC)NC(=O)[C@H](CCC(N)=O)NC(=O)[C@H](CCCCN)NC(=O)[C@H](CO)NC(=O)[C@H](CC(C)C)NC(=O)[C@H](CC(=O)O)NC(=O)[C@H](CO)NC(=O)[C@@H](NC(=O)[C@H](Cc1ccccc1)NC(=O)[C@@H](NC(=O)CNC(=O)[C@H](CCC(=O)O)NC(=O)C(C)(C)NC(=O)[C@@H](N)Cc1c[nH]cn1)[C@@H](C)O)[C@@H](C)O)C(C)C)C(=O)N[C@@H](CCC(=O)O)C(=O)N[C@@H](Cc1c[nH]c2ccccc12)C(=O)N[C@@H](CC(C)C)C(=O)N[C@@H](CCCCN)C(=O)N[C@@H](CC(N)=O)C(=O)N[C@@H](CCCCN)C(=O)NC(C)(C)C(=O)N[C@@H](CC(C)C)C(=O)N[C@@H](CCC(=O)O)C(=O)N[C@@H](Cc1ccccc1)C(=O)N[C@@H](CC(C)C)C(=O)N[C@@H](CCC(=O)O)C(=O)N[C@@H](CC(C)C)C(=O)N1CCC[C@H]1C(N)=O
B2: [Aib2,Glu21,Lys29,Aib30,Leu31,Glu32,Phe33,Leu34,Leu36,Leu37]-Exendin-4-(1-37)-peptide amide (peptide)
peptide: H[Aib]EGTFTSDLSKQMEEEAVREFIEWLKNK[Aib]LEFLALL-NH2
modifications: N-terminus assumed
SMILES: CC[C@H](C)[C@H](NC(=O)[C@H](Cc1ccccc1)NC(=O)[C@H](CCC(=O)O)NC(=O)[C@H](CCCNC(=N)N)NC(=O)[C@@H](NC(=O)[C@H](C)NC(=O)[C@H](CCC(=O)O)NC(=O)[C@H](CCC(=O)O)NC(=O)[C@H](CCC(=O)O)NC(=O)[C@H](CCSC)NC(=O)[C@H](CCC(N)=O)NC(=O)[C@H](CCCCN)NC(=O)[C@H](CO)NC(=O)[C@H](CC(C)C)NC(=O)[C@H](CC(=O)O)NC(=O)[C@H](CO)NC(=O)[C@@H](NC(=O)[C@H](Cc1ccccc1)NC(=O)[C@@H](NC(=O)CNC(=O)[C@H](CCC(=O)O)NC(=O)C(C)(C)NC(=O)[C@@H](N)Cc1c[nH]cn1)[C@@H](C)O)[C@@H](C)O)C(C)C)C(=O)N[C@@H](CCC(=O)O)C(=O)N[C@@H](Cc1c[nH]c2ccccc12)C(=O)N[C@@H](CC(C)C)C(=O)N[C@@H](CCCCN)C(=O)N[C@@H](CC(N)=O)C(=O)N[C@@H](CCCCN)C(=O)NC(C)(C)C(=O)N[C@@H](CC(C)C)C(=O)N[C@@H](CCC(=O)O)C(=O)N[C@@H](Cc1ccccc1)C(=O)N[C@@H](CC(C)C)C(=O)N[C@@H](C)C(=O)N[C@@H](CC(C)C)C(=O)N[C@@H](CC(C)C)C(N)=O
B3: [Aib2,Glu21,Lys29,Aib30,Leu31,Glu32,Leu34,Glu35,Leu36,Leu37]-Exendin-4-(1-37)-peptide amide (peptide)
peptide: H[Aib]EGTFTSDLSKQMEEEAVREFIEWLKNK[Aib]LESLELL-NH2
modifications: N-terminus assumed
SMILES: CC[C@H](C)[C@H](NC(=O)[C@H](Cc1ccccc1)NC(=O)[C@H](CCC(=O)O)NC(=O)[C@H](CCCNC(=N)N)NC(=O)[C@@H](NC(=O)[C@H](C)NC(=O)[C@H](CCC(=O)O)NC(=O)[C@H](CCC(=O)O)NC(=O)[C@H](CCC(=O)O)NC(=O)[C@H](CCSC)NC(=O)[C@H](CCC(N)=O)NC(=O)[C@H](CCCCN)NC(=O)[C@H](CO)NC(=O)[C@H](CC(C)C)NC(=O)[C@H](CC(=O)O)NC(=O)[C@H](CO)NC(=O)[C@@H](NC(=O)[C@H](Cc1ccccc1)NC(=O)[C@@H](NC(=O)CNC(=O)[C@H](CCC(=O)O)NC(=O)C(C)(C)NC(=O)[C@@H](N)Cc1c[nH]cn1)[C@@H](C)O)[C@@H](C)O)C(C)C)C(=O)N[C@@H](CCC(=O)O)C(=O)N[C@@H](Cc1c[nH]c2ccccc12)C(=O)N[C@@H](CC(C)C)C(=O)N[C@@H](CCCCN)C(=O)N[C@@H](CC(N)=O)C(=O)N[C@@H](CCCCN)C(=O)NC(C)(C)C(=O)N[C@@H](CC(C)C)C(=O)N[C@@H](CCC(=O)O)C(=O)N[C@@H](CO)C(=O)N[C@@H](CC(C)C)C(=O)N[C@@H](CCC(=O)O)C(=O)N[C@@H](CC(C)C)C(=O)N[C@@H](CC(C)C)C(N)=O
B4: [Aib2,Glu21,Lys29,Aib30,Leu31,Glu32,Phe33,Glu35,Leu36,Leu37]-Exendin-4-(1-37)-peptide amide (peptide)
peptide: H[Aib]EGTFTSDLSKQMEEEAVREFIEWLKNK[Aib]LEFGELL-NH2
modifications: N-terminus assumed
SMILES: CC[C@H](C)[C@H](NC(=O)[C@H](Cc1ccccc1)NC(=O)[C@H](CCC(=O)O)NC(=O)[C@H](CCCNC(=N)N)NC(=O)[C@@H](NC(=O)[C@H](C)NC(=O)[C@H](CCC(=O)O)NC(=O)[C@H](CCC(=O)O)NC(=O)[C@H](CCC(=O)O)NC(=O)[C@H](CCSC)NC(=O)[C@H](CCC(N)=O)NC(=O)[C@H](CCCCN)NC(=O)[C@H](CO)NC(=O)[C@H](CC(C)C)NC(=O)[C@H](CC(=O)O)NC(=O)[C@H](CO)NC(=O)[C@@H](NC(=O)[C@H](Cc1ccccc1)NC(=O)[C@@H](NC(=O)CNC(=O)[C@H](CCC(=O)O)NC(=O)C(C)(C)NC(=O)[C@@H](N)Cc1c[nH]cn1)[C@@H](C)O)[C@@H](C)O)C(C)C)C(=O)N[C@@H](CCC(=O)O)C(=O)N[C@@H](Cc1c[nH]c2ccccc12)C(=O)N[C@@H](CC(C)C)C(=O)N[C@@H](CCCCN)C(=O)N[C@@H](CC(N)=O)C(=O)N[C@@H](CCCCN)C(=O)NC(C)(C)C(=O)N[C@@H](CC(C)C)C(=O)N[C@@H](CCC(=O)O)C(=O)N[C@@H](Cc1ccccc1)C(=O)NCC(=O)N[C@@H](CCC(=O)O)C(=O)N[C@@H](CC(C)C)C(=O)N[C@@H](CC(C)C)C(N)=O
B5: [Aib2,Glu21,Lys29,Aib30,Leu31,Glu32,Phe33,Leu34,Glu35,Leu37]-Exendin-4-(1-37)-peptide amide (peptide)
peptide: H[Aib]EGTFTSDLSKQMEEEAVREFIEWLKNK[Aib]LEFLEPL-NH2
modifications: N-terminus assumed
SMILES: CC[C@H](C)[C@H](NC(=O)[C@H](Cc1ccccc1)NC(=O)[C@H](CCC(=O)O)NC(=O)[C@H](CCCNC(=N)N)NC(=O)[C@@H](NC(=O)[C@H](C)NC(=O)[C@H](CCC(=O)O)NC(=O)[C@H](CCC(=O)O)NC(=O)[C@H](CCC(=O)O)NC(=O)[C@H](CCSC)NC(=O)[C@H](CCC(N)=O)NC(=O)[C@H](CCCCN)NC(=O)[C@H](CO)NC(=O)[C@H](CC(C)C)NC(=O)[C@H](CC(=O)O)NC(=O)[C@H](CO)NC(=O)[C@@H](NC(=O)[C@H](Cc1ccccc1)NC(=O)[C@@H](NC(=O)CNC(=O)[C@H](CCC(=O)O)NC(=O)C(C)(C)NC(=O)[C@@H](N)Cc1c[nH]cn1)[C@@H](C)O)[C@@H](C)O)C(C)C)C(=O)N[C@@H](CCC(=O)O)C(=O)N[C@@H](Cc1c[nH]c2ccccc12)C(=O)N[C@@H](CC(C)C)C(=O)N[C@@H](CCCCN)C(=O)N[C@@H](CC(N)=O)C(=O)N[C@@H](CCCCN)C(=O)NC(C)(C)C(=O)N[C@@H](CC(C)C)C(=O)N[C@@H](CCC(=O)O)C(=O)N[C@@H](Cc1ccccc1)C(=O)N[C@@H](CC(C)C)C(=O)N[C@@H](CCC(=O)O)C(=O)N1CCC[C@H]1C(=O)N[C@@H](CC(C)C)C(N)=O

Molecular target: human GLP-1 receptor (human, UniProt P43220)
Assay: cell-based or functional assay

Going from B1 to B2, the “CRE luciferase EC50, 0% HSA” value rises from 0.023 nM to 0.754 nM (33-fold).

B3 and B4 are within 1.5-fold of each other in “CRE luciferase EC50, 0% HSA” value: 0.023 nM for the first, 0.026 nM for the second.

For B5, the “CRE luciferase EC50, 0% HSA” value was 0.032 nM.

Going from B1 to B2, the “CRE luciferase EC50, 1% HSA” value rises from 0.01 nM to 0.388 nM (39-fold).

B3 and B4 are within 1.5-fold of each other in “CRE luciferase EC50, 1% HSA” value: 0.011 nM for the first, 0.012 nM for the second.

B5 was tested, and the “CRE luciferase EC50, 1% HSA” value was 0.013 nM.
